Reference: patent publication US20190077860A1 (EISAI R AND D MANAGEMENT, published 2019)

Key:
[1] = biological target: T1, human EphA4 extracellular region-SEAP-His protein (human, UniProt P54764 20-547); test: competition ELISA, competitor human Ephrin A5-Fc
T1 construct: also called hEphA4-SEAP-His
Procedure: Antibody A obtained in Example 1 was evaluated for its inhibitory activity against the binding between human EphA4 and its human ligand according to the following steps. Each well of a 96-well plate (Nunc) was coated with an anti-alkaline phosphatase antibody (Thermo Fisher Scientific). After incubation overnight at 4° C., each well was blocked with 1% BlockAce (DS Pharma Biomedical) at room temperature for 1 hour. After washing with 0.05% Tween 20/PBS (Thermo Fisher Scientific) three times, the human EphA4 extracellular region-SEAP-His protein obtained by the method of Example 1 was added (final concentration: 10 nM) to each well and incubated at room temperature for 1 hour. After washing three times, ligands and serially diluted antibody A (0, 0.003, 0.01, 0.03, 0.1, 0.3, 1, 3, 10, 30, 100, 300, 1000, and 3000 nM) or an EphA4 inhibitor KYL peptide ([…], 0, 0.003, 0.01, 0.03, 0.1, 0.3, 1, 3, 10, 30, 100, 300, 1000, and 3000 μM, its synthesis was outsourced to Toray Research Center) were added to each well. The ligands used were biotinylated human Ephrin A5-Fc chimera (R&D Systems, final concentration: 0.7 nM) and biotinylated human Ephrin B3-Fc chimera (R&D Systems, final concentration: 2.3 nM). […] The absorbance at 450 nm was read using a microplate reader (Molecular Devices or PerkinElmer). […]

[2] = biological target: T2, human EphA4 extracellular region-Fc-His protein (human, UniProt P54764 20-547); test: ELISA, EphA4 extracellular region-Fc-His (1 nM) captured on the plate, antibody A titrated, HRP anti-mouse IgG detection, OD 450 nm
T2 construct: used as culture supernatant
T2 sequence (P54764 20-547): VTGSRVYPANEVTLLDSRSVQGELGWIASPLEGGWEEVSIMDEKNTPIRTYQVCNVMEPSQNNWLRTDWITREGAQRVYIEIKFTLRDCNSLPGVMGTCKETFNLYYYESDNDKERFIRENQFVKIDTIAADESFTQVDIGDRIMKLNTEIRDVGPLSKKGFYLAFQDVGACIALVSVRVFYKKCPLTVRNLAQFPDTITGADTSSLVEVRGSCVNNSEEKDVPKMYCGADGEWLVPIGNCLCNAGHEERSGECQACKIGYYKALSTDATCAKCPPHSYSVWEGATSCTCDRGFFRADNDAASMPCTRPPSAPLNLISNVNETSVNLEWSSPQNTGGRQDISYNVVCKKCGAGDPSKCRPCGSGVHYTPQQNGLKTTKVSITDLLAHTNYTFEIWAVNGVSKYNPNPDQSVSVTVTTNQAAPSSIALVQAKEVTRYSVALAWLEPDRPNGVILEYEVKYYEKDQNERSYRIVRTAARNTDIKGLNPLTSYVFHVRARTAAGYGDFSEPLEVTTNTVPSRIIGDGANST
Procedure: (§1) Each well of a 96-well plate (Nunc) was coated with a […] (Jackson ImmunoResearch Laboratories). After incubation overnight at 4° C., each well was blocked with 1% BlockAce (Sumitomo Dainippon Pharma) at room temperature for 1 hour. After washing with 0.05% Tween 20/PBS (Nacalai Tesque) three times, the mouse, rat, monkey, or human EphA4 extracellular region-Fc-His protein was disseminated (final concentration: 1 nM) to each well and incubated at room temperature for 1 hour. After washing three times, a human IgG solution (100 μg/mL, Mitsubishi Pharma) and antibody A (0, 0.00128, 0.0064, 0.032, 0.16, 0.8, 4, and 20 μg/mL) were added to each well and incubated at room temperature for 1 hour. A horseradish peroxidase-labeled donkey anti-mouse IgG antibody (Jackson ImmunoResearch Laboratories) was added thereto and incubated at room temperature for 1 hour. After washing three times, a TMBZ (3,3′,5,5′-tetramethylbenzidine, Sigma-Aldrich) solution was added to each well. After confirmation of moderate color development, an equal amount of a reaction stopping solution (1N H₂SO₄, Wako Pure Chemical Industries) was added to each well. The absorbance at 450 nm was read using a microplate reader (PerkinElmer).

[3] = biological target: T3, mouse EphA4 extracellular region-Fc-His protein (mouse; human, UniProt Q03137 20-547); test: as above
T3 construct: used as culture supernatant
T3 sequence (Q03137 20-547): as the sequence (P54764 20-547) above, with P59A, N121S, V124G, R250Q, S251N, T270S, K378R, N406S counted along it
Procedure: as §1

[4] = biological target: T4, monkey EphA4 extracellular region-Fc-His protein (monkey; human); test: as above
T4 construct: used as culture supernatant
T4 sequence (chain, as listed by the source): as the sequence (P54764 20-547) above, with N406S counted along it
Procedure: as §1

[5] = biological target: T5, rat EphA4 extracellular region-Fc-His protein (rat; human, UniProt D3ZZK3 20-547); test: as above
T5 construct: range 20-547; used as culture supernatant
Procedure: as §1

[6] = biological target: mouse EphA4 extracellular region-SEAP-His protein (mouse); test: SPR (Biacore A100), antibody A captured on a rat anti-mouse IgG1 CM5 chip, mouse EphA4 extracellular region-SEAP-His as analyte at 0.8-50 nM, 1:1 fit
Chain of mouse EphA4 extracellular region-SEAP-His protein (mouse) (chain, as listed by the source limits assumed): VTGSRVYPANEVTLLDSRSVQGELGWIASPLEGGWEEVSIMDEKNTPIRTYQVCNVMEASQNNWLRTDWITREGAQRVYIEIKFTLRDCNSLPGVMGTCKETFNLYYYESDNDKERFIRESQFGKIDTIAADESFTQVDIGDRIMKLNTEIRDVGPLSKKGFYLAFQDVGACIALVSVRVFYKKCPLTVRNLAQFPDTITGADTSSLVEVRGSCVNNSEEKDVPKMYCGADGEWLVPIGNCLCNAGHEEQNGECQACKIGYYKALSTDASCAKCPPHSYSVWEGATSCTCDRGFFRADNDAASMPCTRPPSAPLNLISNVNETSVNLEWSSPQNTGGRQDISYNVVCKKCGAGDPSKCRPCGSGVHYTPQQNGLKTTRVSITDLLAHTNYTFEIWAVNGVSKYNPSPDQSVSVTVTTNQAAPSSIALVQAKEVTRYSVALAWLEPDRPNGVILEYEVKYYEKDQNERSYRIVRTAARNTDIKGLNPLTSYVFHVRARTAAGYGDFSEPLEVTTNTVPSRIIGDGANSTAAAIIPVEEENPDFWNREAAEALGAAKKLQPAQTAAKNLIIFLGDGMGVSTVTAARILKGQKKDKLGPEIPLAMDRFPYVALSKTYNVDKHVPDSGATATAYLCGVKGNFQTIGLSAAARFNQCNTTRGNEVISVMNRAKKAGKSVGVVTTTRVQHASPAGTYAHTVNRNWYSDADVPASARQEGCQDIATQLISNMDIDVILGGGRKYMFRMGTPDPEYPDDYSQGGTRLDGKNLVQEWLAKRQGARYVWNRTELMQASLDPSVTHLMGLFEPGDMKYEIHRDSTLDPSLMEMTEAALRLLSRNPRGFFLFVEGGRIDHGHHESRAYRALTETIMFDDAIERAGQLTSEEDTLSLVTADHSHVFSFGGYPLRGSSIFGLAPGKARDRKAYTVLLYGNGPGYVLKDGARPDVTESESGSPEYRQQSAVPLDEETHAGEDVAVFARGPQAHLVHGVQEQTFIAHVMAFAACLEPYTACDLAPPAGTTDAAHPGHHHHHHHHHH
Procedure: The binding affinity of antibody A obtained in Example 1 for mouse and human EphA4 was determined by surface plasmon resonance (SPR) using Biacore A100 (GE Healthcare). First, a rat anti-mouse IgG₁ antibody produced with a conventional procedure by immunizing rat with a mouse IgG₁ antibody was immobilized on sensor chip CM5. The immobilization of the rat anti-mouse IgG1 antibody on sensor chip CM5 was performed by the amine coupling method using N-hydroxysuccinimide (NHS) and N-ethyl-N′-(3-dimethylaminopropyl)carbodiimide hydrochloride (EDC). Ethanolamine was used in blocking (the sensor chip and the reagents for immobilization were all manufactured by GE Healthcare). The antibody was diluted with a buffer solution for immobilization (10 mM sodium acetate, pH 4.5) into 1 to 2 μg/mL and immobilized on the sensor chip according to the protocol attached to Biacore A100. Antibody A was diluted with a running buffer solution HBS-EP (GE Healthcare, BR-1001-88), injected onto a flow cell for 120 seconds, and captured (amount of the antibody captured: approximately 70 to 100 RU). Subsequently, mouse or human EphA4 extracellular region-SEAP-His serially diluted in the range of 50, 25, 12.5, 6.3, 3.1, 1.6, 0.8, and 0 nM using HBS-EP was added to the sensor chip for 120 seconds. […]

T1 sequence (P54764 20-547): as the sequence (P54764 20-547) above

IC50 [1]: ~2.7 nM | EC50 (read off the curve) [2]: ~0.1 nM | EC50 (read off the curve) [3]: ~0.1 nM | EC50 (read off the curve) [4]: ~0.1 nM | EC50 (read off the curve) [5]: ~0.1 nM | koff [6]: 0.000144 s⁻¹ | kon [6]: 218000 M⁻¹ s⁻¹
B1: antibody A (antibody, mouse IgG1, kappa, V domains shown)
VH: QIQLVQSGPELKKPGETVKISCKASGYTFTDYSMHWVKQAPGKGLKWMGWINTETGEPTYADDFKGRFAFSLETSASTAYLQINNLKNEDTATYFCARIPLYYYGSRYWYFDVWGAGTTVTVSS
VL: DIQMTQSPASLSVSVGETVTITCRASENIYRNLAWYQQKQGKSPQLLVYAATNLADGVPSRFSGSGSGTQYSLKINSLQSEDFGSYYCQHFWGTPWTFGGGTKLEIKR
notes: mouse IgG1 heavy chain, kappa light chain; purified from hybridoma supernatant; also called anti-EphA4 monoclonal antibody; antibody A-IgG
